Assay results as given in patent publication US20180319872A1.

Assays:
[1] = molecular target: Clostridium difficile toxin B (TcdB) (Clostridium difficile) (UniProt P18177); experiment: ELISA on plates coated with 1 ug/ml TcdB (TxB), OD450
[2] = molecular target: Clostridium difficile toxin A (TcdA) (Clostridium difficile) (UniProt P16154); experiment: ELISA on plates coated with 1 ug/ml TcdA (TxA), OD450
[3] = molecular target: Clostridium difficile toxin A (TcdA) (Clostridium difficile) (UniProt P16154); experiment: cell-based or functional assay

Sequence of Clostridium difficile toxin A (TcdA) (Clostridium difficile) (P16154 whole entry): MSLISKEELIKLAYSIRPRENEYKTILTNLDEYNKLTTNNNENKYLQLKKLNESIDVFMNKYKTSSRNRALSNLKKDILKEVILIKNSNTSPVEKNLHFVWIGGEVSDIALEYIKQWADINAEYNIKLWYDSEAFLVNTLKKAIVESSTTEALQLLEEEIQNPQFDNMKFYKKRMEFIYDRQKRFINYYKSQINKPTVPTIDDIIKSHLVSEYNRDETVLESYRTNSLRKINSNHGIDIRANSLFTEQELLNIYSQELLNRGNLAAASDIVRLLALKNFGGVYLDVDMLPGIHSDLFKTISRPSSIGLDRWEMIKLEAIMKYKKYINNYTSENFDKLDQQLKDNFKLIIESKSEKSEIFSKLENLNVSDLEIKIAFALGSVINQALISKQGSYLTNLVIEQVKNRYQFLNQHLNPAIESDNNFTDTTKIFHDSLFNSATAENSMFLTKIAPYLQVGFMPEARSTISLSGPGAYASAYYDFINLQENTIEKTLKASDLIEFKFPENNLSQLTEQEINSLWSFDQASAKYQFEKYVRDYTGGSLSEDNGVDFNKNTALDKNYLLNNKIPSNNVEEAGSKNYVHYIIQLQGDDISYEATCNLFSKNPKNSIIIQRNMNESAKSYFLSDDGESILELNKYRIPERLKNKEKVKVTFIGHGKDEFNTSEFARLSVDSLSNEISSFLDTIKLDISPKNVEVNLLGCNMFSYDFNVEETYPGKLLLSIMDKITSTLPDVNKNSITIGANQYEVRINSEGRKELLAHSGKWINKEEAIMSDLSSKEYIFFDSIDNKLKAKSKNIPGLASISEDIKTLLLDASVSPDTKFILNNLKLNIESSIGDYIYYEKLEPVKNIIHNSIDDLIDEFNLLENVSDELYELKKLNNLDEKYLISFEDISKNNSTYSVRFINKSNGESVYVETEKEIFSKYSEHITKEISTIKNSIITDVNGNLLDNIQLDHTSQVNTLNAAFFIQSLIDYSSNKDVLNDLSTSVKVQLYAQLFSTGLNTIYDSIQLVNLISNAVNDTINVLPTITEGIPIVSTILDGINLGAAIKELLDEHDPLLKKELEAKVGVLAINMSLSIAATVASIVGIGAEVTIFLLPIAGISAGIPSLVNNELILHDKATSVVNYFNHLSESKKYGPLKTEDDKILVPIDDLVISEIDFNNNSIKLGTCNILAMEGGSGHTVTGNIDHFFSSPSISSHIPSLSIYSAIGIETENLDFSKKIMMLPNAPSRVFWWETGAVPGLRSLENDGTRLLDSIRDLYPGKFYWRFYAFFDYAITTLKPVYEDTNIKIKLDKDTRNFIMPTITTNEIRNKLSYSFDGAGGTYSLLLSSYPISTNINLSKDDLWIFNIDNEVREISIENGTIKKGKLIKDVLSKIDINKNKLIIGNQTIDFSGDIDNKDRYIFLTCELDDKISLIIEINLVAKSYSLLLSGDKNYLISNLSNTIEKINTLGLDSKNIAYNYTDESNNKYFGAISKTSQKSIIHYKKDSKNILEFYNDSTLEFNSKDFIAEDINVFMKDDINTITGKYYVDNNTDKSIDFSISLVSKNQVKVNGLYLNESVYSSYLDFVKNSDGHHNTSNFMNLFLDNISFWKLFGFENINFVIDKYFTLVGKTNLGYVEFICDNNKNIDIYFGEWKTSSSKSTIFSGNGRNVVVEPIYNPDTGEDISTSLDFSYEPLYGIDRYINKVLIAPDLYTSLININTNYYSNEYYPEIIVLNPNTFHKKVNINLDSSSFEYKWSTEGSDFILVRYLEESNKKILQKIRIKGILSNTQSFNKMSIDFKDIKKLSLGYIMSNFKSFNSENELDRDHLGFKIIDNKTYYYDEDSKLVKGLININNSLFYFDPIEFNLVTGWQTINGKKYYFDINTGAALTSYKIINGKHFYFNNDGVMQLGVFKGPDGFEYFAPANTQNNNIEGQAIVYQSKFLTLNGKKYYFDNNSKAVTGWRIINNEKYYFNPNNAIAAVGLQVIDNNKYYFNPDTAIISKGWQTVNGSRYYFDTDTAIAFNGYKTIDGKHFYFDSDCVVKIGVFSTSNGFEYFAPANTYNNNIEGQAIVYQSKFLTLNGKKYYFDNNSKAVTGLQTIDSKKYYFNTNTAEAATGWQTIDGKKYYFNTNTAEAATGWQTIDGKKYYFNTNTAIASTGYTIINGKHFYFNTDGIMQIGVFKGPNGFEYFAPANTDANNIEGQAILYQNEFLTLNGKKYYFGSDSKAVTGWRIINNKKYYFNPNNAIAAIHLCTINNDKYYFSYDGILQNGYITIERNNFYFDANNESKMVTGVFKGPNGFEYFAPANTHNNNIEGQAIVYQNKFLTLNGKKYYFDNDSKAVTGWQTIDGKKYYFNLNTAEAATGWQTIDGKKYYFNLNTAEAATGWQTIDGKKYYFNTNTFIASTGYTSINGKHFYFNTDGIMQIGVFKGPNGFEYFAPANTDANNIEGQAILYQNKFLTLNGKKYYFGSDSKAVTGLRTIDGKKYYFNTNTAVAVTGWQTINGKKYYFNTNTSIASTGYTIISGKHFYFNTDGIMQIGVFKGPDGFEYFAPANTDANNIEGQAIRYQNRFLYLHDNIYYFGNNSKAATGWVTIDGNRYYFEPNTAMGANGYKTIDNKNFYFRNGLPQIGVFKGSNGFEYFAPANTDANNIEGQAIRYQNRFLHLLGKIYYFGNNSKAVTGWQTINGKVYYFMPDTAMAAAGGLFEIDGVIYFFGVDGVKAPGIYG
Sequence of Clostridium difficile toxin B (TcdB) (Clostridium difficile) (P18177 2-2366 limits assumed): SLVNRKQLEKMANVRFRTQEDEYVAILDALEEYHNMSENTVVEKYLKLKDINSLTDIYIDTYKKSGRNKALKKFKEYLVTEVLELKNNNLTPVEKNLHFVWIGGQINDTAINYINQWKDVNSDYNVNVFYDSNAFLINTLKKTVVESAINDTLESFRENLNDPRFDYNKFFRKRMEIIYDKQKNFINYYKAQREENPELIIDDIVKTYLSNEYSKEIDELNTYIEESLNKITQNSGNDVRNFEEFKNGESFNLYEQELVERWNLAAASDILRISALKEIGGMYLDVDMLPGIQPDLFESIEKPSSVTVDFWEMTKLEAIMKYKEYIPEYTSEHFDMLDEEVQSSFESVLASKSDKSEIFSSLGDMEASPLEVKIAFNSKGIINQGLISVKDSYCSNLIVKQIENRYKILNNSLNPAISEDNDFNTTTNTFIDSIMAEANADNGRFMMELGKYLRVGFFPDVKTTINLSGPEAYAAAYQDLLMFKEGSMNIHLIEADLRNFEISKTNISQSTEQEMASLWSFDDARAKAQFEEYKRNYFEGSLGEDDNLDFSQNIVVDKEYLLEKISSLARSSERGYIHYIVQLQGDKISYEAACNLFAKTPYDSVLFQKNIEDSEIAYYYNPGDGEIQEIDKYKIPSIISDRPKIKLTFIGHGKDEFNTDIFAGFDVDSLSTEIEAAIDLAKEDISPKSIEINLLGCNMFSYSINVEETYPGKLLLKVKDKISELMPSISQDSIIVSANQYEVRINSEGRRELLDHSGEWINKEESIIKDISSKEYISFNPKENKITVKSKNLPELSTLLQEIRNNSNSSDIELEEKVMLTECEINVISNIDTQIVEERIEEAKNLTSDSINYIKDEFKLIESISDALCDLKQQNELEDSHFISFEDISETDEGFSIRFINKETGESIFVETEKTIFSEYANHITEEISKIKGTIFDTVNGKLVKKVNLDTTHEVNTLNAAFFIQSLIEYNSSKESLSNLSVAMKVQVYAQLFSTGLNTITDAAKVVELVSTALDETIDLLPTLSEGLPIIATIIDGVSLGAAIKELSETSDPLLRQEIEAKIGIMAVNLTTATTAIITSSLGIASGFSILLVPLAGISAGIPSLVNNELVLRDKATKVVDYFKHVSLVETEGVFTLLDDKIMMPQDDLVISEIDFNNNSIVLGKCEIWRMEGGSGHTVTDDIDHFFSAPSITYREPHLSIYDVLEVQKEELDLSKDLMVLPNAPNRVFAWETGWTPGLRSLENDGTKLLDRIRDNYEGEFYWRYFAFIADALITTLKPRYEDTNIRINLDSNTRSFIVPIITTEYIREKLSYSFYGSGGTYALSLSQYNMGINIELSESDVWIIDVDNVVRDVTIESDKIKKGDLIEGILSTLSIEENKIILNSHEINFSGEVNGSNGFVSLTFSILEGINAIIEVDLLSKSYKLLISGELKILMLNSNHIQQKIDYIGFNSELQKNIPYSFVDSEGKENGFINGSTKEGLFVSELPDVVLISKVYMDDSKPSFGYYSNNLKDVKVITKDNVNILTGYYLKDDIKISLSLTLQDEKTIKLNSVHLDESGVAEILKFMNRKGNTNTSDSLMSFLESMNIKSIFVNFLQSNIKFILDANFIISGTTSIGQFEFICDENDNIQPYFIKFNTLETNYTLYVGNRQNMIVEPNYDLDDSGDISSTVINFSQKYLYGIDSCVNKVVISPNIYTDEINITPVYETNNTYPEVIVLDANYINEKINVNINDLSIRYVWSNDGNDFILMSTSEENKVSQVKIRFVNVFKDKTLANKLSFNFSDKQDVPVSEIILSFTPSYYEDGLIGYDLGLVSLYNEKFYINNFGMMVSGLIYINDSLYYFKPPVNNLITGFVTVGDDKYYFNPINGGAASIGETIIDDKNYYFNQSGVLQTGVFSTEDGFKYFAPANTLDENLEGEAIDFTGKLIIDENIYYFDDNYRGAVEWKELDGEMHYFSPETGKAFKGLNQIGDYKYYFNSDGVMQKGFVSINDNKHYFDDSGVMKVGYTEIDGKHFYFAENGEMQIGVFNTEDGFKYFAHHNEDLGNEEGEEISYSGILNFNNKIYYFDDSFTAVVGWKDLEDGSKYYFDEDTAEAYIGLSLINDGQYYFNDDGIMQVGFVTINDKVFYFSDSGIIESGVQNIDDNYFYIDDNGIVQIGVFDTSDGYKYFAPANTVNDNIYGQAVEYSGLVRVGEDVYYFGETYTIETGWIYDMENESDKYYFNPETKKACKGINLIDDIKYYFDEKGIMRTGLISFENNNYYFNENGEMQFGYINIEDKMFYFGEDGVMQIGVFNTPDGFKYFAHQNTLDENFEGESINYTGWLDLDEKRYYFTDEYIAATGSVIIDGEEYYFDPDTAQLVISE

Substance	EC50 (read off the curve) [1] [ng/mL]	EC50 (read off the curve) [2] [ng/mL]	minimal dose protecting Vero cells from TcdA-induced cell rounding (5 ng/ml TcdA) [3] [nM]
Merc Ab (antibody)	10		
Merck anti-TcdA human monoclonal antibody (actoxumab)		2	> 10
